Laboratory results taken from the Human Domainome abundance scans (Beltran et al. 2025).
± gives the uncertainty stated by the source.

B1: CD2-associated protein, residues 271 to 331; numbered along this chain, Q9Y5K6 (parent)
chain: KEYCRTLFAYEGTNEDELTFKEGEIIHLISKETGEAGWWRGELNGKEGVFPDNFAVQINEL

Variants of: B1
Test: abundance fitness (aPCA) (normalised: wild type 0, dead -1); higher = more abundant; growth selection in yeast, the domain comes from the species named
Settings: Homo sapiens

**Q.** With KEYCRTLFAYEGTNEDELTFKEGEIIHLISKETGEARWWRGELNGKEGVFPDNFAVQINEL [G37R] as the variant, how does the abundance fitness read?
**A.** -0.651 ± 0.09

**Q.** For KEYCRTLFAYEYTNEDELTFKEGEIIHLISKETGEAGWWRGELNGKEGVFPDNFAVQINEL [G12Y], which abundance fitness is on record?
**A.** -0.759 ± 0.23

**Q.** With KEYCRTLFAYEGTNEDELTFKEGEIIHLISKELGEAGWWRGELNGKEGVFPDNFAVQINEL [T33L] as the variant, how does the abundance fitness read?
**A.** -0.349 ± 0.061

**Q.** For KEYCRTLFAYEGTNEDELTFKEGEIIHLISKEQGEAGWWRGELNGKEGVFPDNFAVQINEL [T33Q], which abundance fitness is on record?
**A.** -0.451 ± 0.09

**Q.** Which abundance fitness does the source give for KEYCRTLFAYEGTNEDELTFKEGEIIHLISKESGEAGWWRGELNGKEGVFPDNFAVQINEL [T33S] here?
**A.** -0.097 ± 0.063

**Q.** Which abundance fitness does the source give for KEYCRTLFAYEGTNEDELTFKEGEIIHLISKETGEAGWWRGELNGKEGVFHDNFAVQINEL [P51H] here?
**A.** -0.866 ± 0.3

**Q.** For KEYCRTLFAYEGTNEDELTFKEGEIIHLISKETGEAGWWRGELNGKEGVFGDNFAVQINEL [P51G], which abundance fitness is on record?
**A.** -0.893 ± 0.096

**Q.** For KEYCRTLFAYEGTNEDELTFKEGEIIHLISKETGEAGWWRGELNGKEGVFPDNFAVQIVEL [N59V], which abundance fitness is on record?
**A.** -0.349 ± 0.13

**Q.** Which abundance fitness does the source give for KEYCRTLFATEGTNEDELTFKEGEIIHLISKETGEAGWWRGELNGKEGVFPDNFAVQINEL [Y10T] here?
**A.** -0.864 ± 0.22

**Q.** For KEWCRTLFAYEGTNEDELTFKEGEIIHLISKETGEAGWWRGELNGKEGVFPDNFAVQINEL [Y3W], which abundance fitness is on record?
**A.** -0.661 ± 0.086

**Q.** With KESCRTLFAYEGTNEDELTFKEGEIIHLISKETGEAGWWRGELNGKEGVFPDNFAVQINEL [Y3S] as the variant, how does the abundance fitness read?
**A.** -0.26 ± 0.067

**Q.** With KEYCRTLFAYEGTNEDELTFKEGEIIHLISKETGEAGWWRGELNGKEGVFPDNNAVQINEL [F54N] as the variant, how does the abundance fitness read?
**A.** -0.625 ± 0.3

**Q.** With KEYCRTLFAYEGTNEDELTFKEGEIIHLISKETGEAGWWRGELNGKEGVFPDNVAVQINEL [F54V] as the variant, how does the abundance fitness read?
**A.** 0.011 ± 0.053

**Q.** Which abundance fitness does the source give for KEYCRTLFAYEGTNEDELTFKEGEIIHLISKETGEAGWWRGELNGKEGVFPDNPAVQINEL [F54P] here?
**A.** -0.572 ± 0.12

**Q.** For KEYCRTLFAYEGTNEDELTFKEGEIIHLISKETLEAGWWRGELNGKEGVFPDNFAVQINEL [G34L], which abundance fitness is on record?
**A.** -0.477 ± 0.084

**Q.** With KEYCRTLFAYEGTNEDELTFKEGEIIHLISKETVEAGWWRGELNGKEGVFPDNFAVQINEL [G34V] as the variant, how does the abundance fitness read?
**A.** -0.368 ± 0.078

**Q.** With KEYCRTLFAYEGTNEDELTFKEGEIIHLISKETIEAGWWRGELNGKEGVFPDNFAVQINEL [G34I] as the variant, how does the abundance fitness read?
**A.** -0.66 ± 0.22

**Q.** With KEYCRTLFAYEGTNEDELTFKEGEIIHLISKETGEAGWWRNELNGKEGVFPDNFAVQINEL [G41N] as the variant, how does the abundance fitness read?
**A.** -0.881 ± 0.22

**Q.** Which abundance fitness does the source give for KEYCRTLFAYEGTNEDELTFKEGEIIHLISKETGEAGWWRMELNGKEGVFPDNFAVQINEL [G41M] here?
**A.** -1.01 ± 0.17

**Q.** Which abundance fitness does the source give for KEYCRTLFEYEGTNEDELTFKEGEIIHLISKETGEAGWWRGELNGKEGVFPDNFAVQINEL [A9E] here?
**A.** -0.09 ± 0.083

**Q.** With VEYCRTLFAYEGTNEDELTFKEGEIIHLISKETGEAGWWRGELNGKEGVFPDNFAVQINEL [K1V] as the variant, how does the abundance fitness read?
**A.** -0.332 ± 0.088

**Q.** For KEYVRTLFAYEGTNEDELTFKEGEIIHLISKETGEAGWWRGELNGKEGVFPDNFAVQINEL [C4V], which abundance fitness is on record?
**A.** -0.354 ± 0.066

**Q.** For KEYGRTLFAYEGTNEDELTFKEGEIIHLISKETGEAGWWRGELNGKEGVFPDNFAVQINEL [C4G], which abundance fitness is on record?
**A.** -0.707 ± 0.094

**Q.** Which abundance fitness does the source give for KEYRRTLFAYEGTNEDELTFKEGEIIHLISKETGEAGWWRGELNGKEGVFPDNFAVQINEL [C4R] here?
**A.** -0.62 ± 0.083

**Q.** Which abundance fitness does the source give for KEYCRTLFAYEGTNEDELTFKEGEIIHLISKETGEAGWWRGELNGKHGVFPDNFAVQINEL [E47H] here?
**A.** -0.154 ± 0.084

**Q.** Which abundance fitness does the source give for KEYCRTLFAYEGTNEDFLTFKEGEIIHLISKETGEAGWWRGELNGKEGVFPDNFAVQINEL [E17F] here?
**A.** -0.53 ± 0.12

**Q.** Which abundance fitness does the source give for KEYCRTLFAYEGTNEDELTPKEGEIIHLISKETGEAGWWRGELNGKEGVFPDNFAVQINEL [F20P] here?
**A.** -0.893 ± 0.15

**Q.** For KEYCRTLFAYEGTNEDELTFKEGEGIHLISKETGEAGWWRGELNGKEGVFPDNFAVQINEL [I25G], which abundance fitness is on record?
**A.** -0.602 ± 0.07

**Q.** For KEYCRTLFAYEGTNEDELTFKEGEIIHLISKETGEAGWWRGELNGKEGVTPDNFAVQINEL [F50T], which abundance fitness is on record?
**A.** -0.705 ± 0.12

**Q.** Which abundance fitness does the source give for KEYCRTLFAYEGTNEDELTFKEGEIIHLISKETGEAGWWRGELNGKEGVKPDNFAVQINEL [F50K] here?
**A.** -0.993 ± 0.17

**Q.** For KEYCRTLFAYEGTNEDELTFKEGEIIHLISKETGEAGWWRGELNGKEGVSPDNFAVQINEL [F50S], which abundance fitness is on record?
**A.** -0.818 ± 0.11

**Q.** With KEYCRTLFAYEGTNEDELTFKEGEIIHLISKETGEAGWWRGELNGKEGVDPDNFAVQINEL [F50D] as the variant, how does the abundance fitness read?
**A.** -0.626 ± 0.13

**Q.** Which abundance fitness does the source give for KEYCRTLFAYEGTNEDELTFKEGEIIHLISKETGEAGWWRGELNGKEGVQPDNFAVQINEL [F50Q] here?
**A.** -0.732 ± 0.12

**Q.** Which abundance fitness does the source give for KEYCRTLFAYEGTNEDELTFKEGEIIHLISKETGEAGWWRGELNGKEGVPPDNFAVQINEL [F50P] here?
**A.** -0.973 ± 0.24

**Q.** With KEYCRTLFAYEGTPEDELTFKEGEIIHLISKETGEAGWWRGELNGKEGVFPDNFAVQINEL [N14P] as the variant, how does the abundance fitness read?
**A.** -0.756 ± 0.12

**Q.** With KEYCRTLFAYEGTYEDELTFKEGEIIHLISKETGEAGWWRGELNGKEGVFPDNFAVQINEL [N14Y] as the variant, how does the abundance fitness read?
**A.** -0.38 ± 0.14

**Q.** Which abundance fitness does the source give for KEYCRTLFAYEGTGEDELTFKEGEIIHLISKETGEAGWWRGELNGKEGVFPDNFAVQINEL [N14G] here?
**A.** -0.087 ± 0.072

**Q.** With KEYCRTLPAYEGTNEDELTFKEGEIIHLISKETGEAGWWRGELNGKEGVFPDNFAVQINEL [F8P] as the variant, how does the abundance fitness read?
**A.** -0.432 ± 0.074

**Q.** For KEYCRTLFAYEGTNEMELTFKEGEIIHLISKETGEAGWWRGELNGKEGVFPDNFAVQINEL [D16M], which abundance fitness is on record?
**A.** -0.194 ± 0.057

**Q.** For KEYCRTLFAYEGTNEDELTFKEPEIIHLISKETGEAGWWRGELNGKEGVFPDNFAVQINEL [G23P], which abundance fitness is on record?
**A.** -0.892 ± 0.2

**Q.** With KEYCRTLFAYEGTNEDELTFKEGEIIHLISKETGEAGWWRGQLNGKEGVFPDNFAVQINEL [E42Q] as the variant, how does the abundance fitness read?
**A.** -0.12 ± 0.11

**Q.** Which abundance fitness does the source give for KEYCRTLFAYEGTNEDELTFKEGEIIHLISKETGEAGWWRGKLNGKEGVFPDNFAVQINEL [E42K] here?
**A.** -0.011 ± 0.14

**Q.** For KEYCRTLFAYEGTNEDELTFKEGEIIHLISKETGEAGWWRGPLNGKEGVFPDNFAVQINEL [E42P], which abundance fitness is on record?
**A.** -0.981 ± 0.21
